Test results as given in a protein production outcome set (Wang et al. 2014).

Test: label from the status in PepcDB records

Sequence	protein production
MTASTAPQTEPHKTSAPESGPVMLLVATIKGAWFLASDPARRTWELRGPVFLGHTIHHIVQDPREPERMLMAARTGHLGPTVFRSDDGGGNWTEATRPPAFNKAPEGETGRVVDHVFWLTPGHASEPGTWYAGTSPQGLFRSTDHGASWEPVAGFNDHPMRRAWTGGEQDGTPDGPKMHSILVDPRDPKHLYIGMSSGGVFESTDAGTDWKPLNRGCAANFLPDPNVEFGHDPHCVVQHPAAPDILYQQNHCGIYRMDRREGVWKRIGDAMPREVGDIGFPIVVHQRDPRTVWVFPMDGSDVWPRVSPGGKPAVYVTRDAGESWQRQDRGLPTDQAWLTVKRQAMTADAHAPVGVYFGTTGGEIWASADEGEHWQCIASHLPHIYAVQSARPV	not failed
LFQRVLYATDFSENATRAFDAFQYLRHATQEATLVHVESPKDATSEADPAEQLASLADTLSQWDIETNVEVRRGDPAEEILDVEAAVTPTTTLVGSRGQSRMRRLLLGSVSEDIIAQATGNVYLVPPP	failed
MQESGCRLEHPSATKFRNHVMEGDWDKAENDLNELKPLVHSPHAIVVRGALEISQTLLGIIVRMKFLLLQQKYLEYLEDGKVLEALQVLRCELTPLKYNTERIHVLSGYLMCSHAEDLRAKAEWEGKGTASRSKLLDKLQTYLPPSVMLPPRRLQTLLRQAVELQRDRCLYHNTKLDNNLDSVSLLIDHVCSRRQFPCYTQQILTEHCNEVWFCKFSNDGTKLATGSKDTTVIIWQVDPDTHLLKLLKTLEGHAYGVSYIAWSPDDNYLVACGPDDCSELWLWNVQTGELRTKMSQSHEDSLTSVAWNPDGKRFVTGGQRGQFYQCDLDGNLLDSWEGVRVQCLWCLSDGKTVLASDTHQRIRGYNFEDLTDRNIVQEDHPIMSFTISKNGRLALLNVATQGVHLWDLQDRVLVRKYQGVTQGFYTIHSCFGGHNEDFIASGSEDHKVYIWHKRSELPIAELTGHTRTVNCVSWNPQIPSMMASASDDGTVRIWGPAPFIDHQNIEEECSSMDS	failed
MSLNYKNYTVMLVDDEQPILNSLKRLIKRLGCNIITFTSPLDALEALKGTSVQLVISDMRMPEMGGEVFLEQVAKSYPDIERVVISGYADAQATIDAVNRGKISRFLLKPWEDEDVFKVVEKGLQLAFLREENLRLQEETEAKNKQEGHHHHHH	not failed
MFKASHVLQGEDQTRSAAEFFPVISANYAVDEEAYLGELLQLADPGPDGIEAIRRNARALIETVRSRDNAVDTLDALLRQYSLDTQEGLMLMCLAEALLRVPDAATADALIRDKLSAADWQRHLGQSDNVLVNFAAWGLVMTGKVVNIDERTDGRAPSVISRLVQRSGEPVIRAAMNQAMKLMGKQFVLGRTISEALKNGRPCREQGYTYSFDMLGEAALTAADAEKYMADYRQAIDTVGAEPQVGPGPRPSISIKLSALHPRYEVAQRERVLSELFANVLELAVRARKLNVGITIDAEEADRLELSLELYEKLMRDPAIAGWGEFGLVIQAYSKRCLPVLVWLTLLGRELGARIPLRLVKGAYWDSEIKQCQVQGADGYPVYTRKEGTDTSYLACARYLLSEHTRGVIYPQFASHNAHTVTAILALADEARAAGGEERDFEFQRLHGMGDALYDTVIEKYRRNVRIYAPVGAHKDLLPYLVRRLLENGANSSFVHKLVDPRVPVETLIQHPVTQLRQFKTLANDRIPLPQAIFGAGRKNSQGINMNIQNQWNELELAYKPHLTRQWQAAPIVNGEKLSGPAHEVRCPYDLERLVGSVQYASAEQAGKALDVLQAAWPRWSATPVDERAGILERLADLLEAQRGELMALCTLEAGKSLQDGIDEIREAVDFCRYYAQQARQRLVREELRGPTGERNELFYEGRGIFACVSPWNFPLAIFLGQISAALVAGNTVLAKPAEQTSLIAARTVELMFEAGLPKDVIALLPGDGATLGGVFCRDARVAGVAFTGSTDTARIINRQLAEKPGAIATLIAETGGQNAMIVDSTALPEQVIKDAVQSAFTSAGQRCSALRVMYVQQDIAERVIELLKGAMAELKVGPTEVRVSDVGPVIDAEAKAGLEQHIAALKAAGKLIAETKVPGNLNGHFVAPVAFEISGIDELKKENFGPVLHVVRYAAQDLEKVVQAINATGFGLTMGVHSRNEETARRIEELARVGNLYINRNQIGAVVGVQPFGGHGLSGTGPKAGGPNYLLRFVSERTTSVNTTAVGGNA	failed
MRHFGPISGIATFKDTYVATAGYDNQVILWDARTRTPIQRVLHDHLANQCAFNAAGTLLVSASSDYTARVWEVPSLRLKTVLIGHDDDIEMAAFSPDGQTIATCSRDHSIRLFNLSGQTLRILHGHTADVISVCWSADGQTLVSSSDDGSIRRWDANTGQQLETIDLGGVETDTVALSREGIIFAGDDEGKISIISPRGTLLQPAHSAGIKRIIWDDSQRLLISLSYDRSVMLWHLKQDGTLVKTAETSLPSIIWPRSCALLGSHRIAFVTFGSRYATWDFATQTWDLSGIEPAVSLNAVAVVGEDVYSIGDAGILHINGQPSIKAGSLCNFLLPFGDSVLTGGQMGTVFDARTGATLYQHRSPLNCGTTFIKDGALHAAIGTYTGEALIFCLDQQQPRFVTQVRMHENAIKGIAADETYIFSVCATAAAAFFRIADFGLETYLDKAHERISNGCTQIQGGFASIGRDLKLRLWRDGASEVFDTPHSHSIKCIAISRDRSMIATGSYGGTVAVFDLKKRVWASVEKPTASGISCLIHDASGEGFLASAYDGRIYPITPRAAVQSARP	failed
MKTLFSIYLFLSLNPLFLEANEITWSKFLENFKNKNDDDKPKPLTIDKNNEKQQILDKNQQILKRALEKSLKFFFIFGYNYSQATFSTSNQTLTFVANSIGFNTATGLEHFLRNHPKVGFRIFSVYNYFHSVSLSQPQTLMVQNYGGALDFSWIFVDKNIYRFRSYLGIALEQGVLLVDTIKPGAITTIIPRTKKTFFQAPLRFGFIVDFIGYLSLQLGIEMPLVRNVFYTYNNHQERFKPRFNANLSLIVSF	failed
MWLYYLQVVMDMRVYVEGYGCVLNTADTEIIKNSLKKHGFEVVNNLEEADIAIINTCVVRLETENRMIYRINELKNLGKEVVVAGCLPKALKNKVKGFLHIYPREAHKAGEILKNYVEKHYRMPYIEEDINKTLYKKLDYLKPSLITPLPICEGCIGNCSYCIVKIARGGLISYPREKIVNKAKELINKGAKCLLITAQDTACYGFDIGDNLANLLNELTQIKGEFIMRVGMMHAKNAELILDELIEVYQNEKVGKFLHLPLQSGDDEILKRMKRGYTVDEFKDIVNEFRRKIKNLCFTTDIIVGFPGETEEQFQNTLEVLRELKPDYIHGAKYSQRKGTEAAKMKQIDTKIRKRRSEILDKLRRELSYLNNKKYIGKAMKVLVLDEGKGYTDNFKVVKFEGGEVGEFRKVKITDAKTFGLKGELILLEHHHHHH	not failed
MTMSLIAGVAAFVLTVLAMPHFITYYKIKKIGGQQMHEDVKQHLAKAGTPTMGGTVFLVVAILISLIFNFHVFTEGHPAYGATAGILFVILIYGIIGFLDDFLKIFHQINEGLKPWQKMALQIVAGLLFYFIHVLPSGTNSLAIGGLTIQLGVFYVLFVLFWIVGFSNAVNLTDGIDGLASVSVVISLIAYGIIAFVKGELAILTIIITMIGALLGFFVFNHKPAKVFMGDVGSLSLGAMLAVISIALRVEWTLLLIGVVYVLETASVMLQVSYFKYTKRKYGEGRRIFRMTPFHHHLELGGISGKGEKWSEWKVDAFLWTIGALASSITLWMVLGNVMK	failed
MKTYTLIATAPMGIEAIVAKEVRDLGYDCTVDNGKVVFEGDALAICRANLWLRTADRVKVQAAEFIAKTFDELFEKTKAIDWSAYLPEHASFPVTGKSVKSVLASVPDCQRIVKKAIAEKLKSEYQTQGEWLEETGPEYKIEVSLLKDKAVITLDSSGAGLHKRGYRTGQGEAPLKETLAAALILLTNWTPDRPFVDPFCGSGTIPIEAALIGQNIAPGFNRDFASERWEWIGKEVWDQARLEVEEKANYDQPLSISGYDLDHRMIEIAKANAEEAGLADFIEFKQMQVKDFRTKEEYGVIVGNPPYGERLGEKKAVEAMYKDMGKAFAELDTWSVYMLTSNERFEECYGKKATKKRKLFNGFIKTDYYQYWGKRPPKPNKEK	not failed
MSLAHPPRLNDDKPVIWTVSVTRLFELFRDISLEFDHLANITPIQLGFEKAVTYIRKKLANERCDAIIAAGSNGAYLKSRLSVPVILIKPSGYDVLQELAKAGKLTSSIGVVTYQETIPALVAFQKTFNLRLDQRSYITEEDARGQINELKANGTEAVVGAGLITDLAEEAGMTGIFIYSAATVRQAFSDALDMTRMSLRHNTHDATRNALRTRYVLEGHHHHHH	not failed
MPARPAYSRLQIALHWLVAILIAAAWLTHEGMGRALETRIETGASGFEGNTPHVWLGIAVFVAVLIRIVVRRVQGAPGPLPGATPLMEKAATWGHRLLYLLMVLTPALGALAWNAHSEAVGELHETVGSALMLVALGHALVALWHQYVKKDGSLTRITRPQG	failed
